doi:10.1101/322404, “Discovery of a novel stereospecific β-hydroxyacyl-CoA lyase/thioesterase shared by three metabolic pathways in Mycobacterium tuberculosis” (bioRxiv, 2018)

Target: the molecule itself
Assay: crystal structure

B1: Mycobacterium tuberculosis Rv2498c, β-hydroxyacyl-CoA lyase/thioesterase (enzyme)
chain: MNLRAAGPGWLFCPADRPERFAKAAAAADVVILDLEDGVAEAQKPAARNALRDTPLDPERTVVRINAGGTADQARDLEALAGTAYTTVMLPKAESAAQVIELAPRDVIALVETARGAVCAAEIAAADPTVGMMWGAEDLIATLGGSSSRRADGAYRDVARHVRSTILLAASAFGRLALDAVHLDILDVEGLQEEARDAAAVGFDVTVCIHPSQIPVVRKAYRPSHEKLAWARRVLAASRSERGAFAFEGQMVDSPVLTHAETMLRRAGEATSE
notes: also called β-HAClyase/thioesterase; CitE-like
For B1, the “stoichiometry N” value was 3.
